Measurements: patent US20200207859A1 (priority 2017, published 2020)

Assays:
SU-DHL-6 NHL tumors = experiment: Subcutaneous SU-DHL-6 non-Hodgkin's lymphoma model; type: in vivo, mouse; settings: CB17 SCID mice, s.c. SU-DHL-6, 10 mg/kg q7dx3 IV
Method: Female CB17 SCID mice 9 weeks of age were anesthetized with isoflurane and implanted subcutaneously into the right flank with a 1:1 mixture of SU-DHL-6 cells and matrigel. Randomization, enrollment into treatment groups, and start of treatment was initiated approximately 14 days post implantation. Treatment groups are outlined in Table 6. All test articles were formulated in 10 mM citrate pH 6.0, 9% sucrose and diluted in PBS. Body weight and tumor size were monitored twice per week until mean of control treated tumors were >1000 mm^3 or end of study. Animal body weights included the tumor weight. Percent body weight change (BWC) is calculated relative to weight on the day of treatment. No samples were collected at the end of study.
Tumor size on day 18 post-tumor implantation (last day control animals were on study) was analyzed using a one-way analysis of variance (ANOVA) with Dunnett's multiple comparison test. A probability of less than 5% (p<0.05) was considered as significant.

[1] = system: ARP-1 multiple myeloma cells; experiment: Disseminated ARP-1 multiple myeloma model; type: in vivo, mouse; settings: CB17 SCID mice, ARP-1 i.v., 3 mg/kg q7dx4 IV
Method: Female CB17 SCID (severe combined immunodeficiency) were inoculated with ARP-1 cells via tail vein injection. Prior to tumor cell inoculation, animals were pre-treated with 0.4 mg/mouse Fludarabine and 2 mg/mouse Cyclophosphamide (intraperitoneal injection). Randomization and treatment was initiated 14 days post tumor inoculation. Treatment groups are outlined in Table 4. All test articles were formulated in 10 mM citrate pH 6.0, 10% sucrose and diluted with PBS. Animals were administered with the designated test article four times every 7 days (q7dx4) by intravenous injection. […] Body weights were monitored twice per week. When vehicle control animals reached the study endpoint (euthanized due to large, palpable internal tumors), three animals from the Group 2 and Group 3 were euthanized for necropsy and bone marrow harvest (from tibia and femur) for flow cytometry. The remaining animals in treated groups were monitored for up to 3 months after start of treatment.
Bone marrow cells from mouse femur and tibia were pooled and assessed for CD138 expression using the Alexa Fluor 647 mouse anti-human CD138 clone MI15 (BD Biosciences #562097) according to the manufacturer's protocol. Direct immunofluorescence flow cytometric analysis was performed using an LSRII flow cytometer and FACS Diva Software. Data was analyzed using Flowjo (Tree Star, Inc., Ashland, Oreg.).
Body weight, tissue volume, or tissue weights at study endpoint, were analyzed using a one-way analysis of variance (ANOVA) with Dunnett's multiple comparison test. A probability of less than 5% (p<0.05) was considered as significant.

SUP-B15 (ALL) = experiment: Cell killing assay (cell proliferation, Cell Titer-Glo); type: cell-based; settings: 72 hrs
Method: Cytotoxicity effects of the free drug linkers and conjugates were measured with a cell proliferation assay. A total of 12500 cells in a volume of 25 μl were seeded in a 384-well flat bottom white polystyrene plate on the day of assay. Free drug-linkers and conjugates were formulated at 2× starting concentration (1000 nM for free drug linkers and 100 nM for ADCs) in RPMI medium and filtered through MultiScreen HTS 96-Well Filter Plates (Millipore). Filter sterilized samples were serial diluted (1:3) under sterile conditions and added into treatment wells. Plates were cultured at 37° C. in a CO2 incubator for 72 hrs. For cell viability measurement, 30 μl of Cell Titer-Glo® reagent (Promega Corp.) was added into each well, and plates processed as per product instructions. Relative luminescence was measured on an ENVISION® plate reader (Perkin-Elmer; Waltham, Mass.). Relative luminescence readings were converted to % viability using untreated cells as controls. Data was fitted with non-linear regression analysis, using log(inhibitor) vs. response, variable slope, 4 parameter fit equation using GraphPad Prism. Data was expressed as % relative cell viability vs. dose of free drug-linker or conjugate in nM.

MJ T lymphoma cells = experiment: T lymphoma cell line cell killing assay; type: cell-based; parameters: key to Cell killing Span: NC = Not Calculable; NK = No Killing; settings: 120 hours
Method: (§1) A total of 12500 cells in a volume of 25 μL were seeded in a 384-well flat bottom white polystyrene plate the day before the assay. […] Filter-sterilized compounds were serial diluted in culture medium and 25 μL of the compounds were added into treatment wells in quadruplicates. Plates were cultured at 37° C. in a CO2 incubator for 120 hours. For cell viability measurement, 30 μL of Cell Titer-Glo® reagent (Promega Corp.; Madison, Wis.) was added into each well, and plates were processed per product instructions. Relative luminescence was measured on an ENVISION® plate reader (Perkin-Elmer; Waltham, Mass.). Relative luminescence readings were converted to percent (%) viability using untreated cells as controls. Data was fitted with non-linear regression analysis, using log(inhibitor) vs. response, variable slope, 4-parameter fit equation using GraphPad Prism (GraphPad v 5.00, Software; San Diego, Calif.). Data was expressed as percent (%) relative cell viability (average of the quadruplicates) vs. dose of compounds in units of nanomolar (nM). Cell killing EC50 values and span were calculated by Prism in order to evaluate the potency of each compound on each cell line.

Jurkat T leukemia cells = experiment: T lymphoma cell line cell killing assay; type: cell-based; parameters: key to Cell killing Span: NC = Not Calculable; NK = No Killing; settings: 120 hours
Method: as §1

B1: Conjugate A: anti-CD74 IgG with pAMF at heavy chain EU position 404 conjugated to DBCO-PEG4-maytansine (conjugate)
VH: QVQLVESGGGVVQPGRSLRLSCAASGFNFSDYGMHWVRQAPGKGLEWVAVIWYDGSISYYADSVKGRFTISRDNSKNTLYLQMNSLRAEDTAVYYCARGGTVEHGAVYGTDVWGQGTTVTVSS
VL: DIQMTQSPSSVSASVGDRVTITCRASQGIGSWLAWYQQKPGKAPKLLIYAADRLQSGVPSRFSGSGSGTDFTLTISSLQPEDFATYYCQQYHTYPLTFGGGTKVEIK
modifications: non-natural residues
Average final tumor size on day 18 (SU-DHL-6 NHL tumors): 291 mm^3
tolerability (effects on animal body weights) (SU-DHL-6 NHL tumors): well tolerated
tumor growth inhibition compared to control (SU-DHL-6 NHL tumors; day 18): ~80%
body weight change (BWC) [1]: No meaningful change in body weight
delay of weight gain after first round of treatment [1]: approximately 20 days
human CD138 positive ARP-1 myeloma cells in the bone marrow (femur and tibia) ([1]; flow cytometry): substantially inhibited ARP-1 growth in the bone marrow
kidney and ovary tissue weights ([1]; n=3): comparable tissue weights to untreated age-matched control animals
Cell Killing Activity Span (SUP-B15 (ALL)): 64%
Cell Killing Activity Span (SUP-B15 (ALL); listed as A): 65%
Cell killing Span (MJ T lymphoma cells): NC
cell killing activity (in words) (MJ T lymphoma cells): less potent cell killing
Cell killing Span (Jurkat T leukemia cells): NK
EC50 (Jurkat T leukemia cells): > 50 nM
cell killing activity (in words) (Jurkat T leukemia cells): No cell killing was observed
